Measured values: patent US20230159643A1 (H LUNDBECK A S, published 2023)

How the values were obtained:
Sortilin hSORTECDBAP [1] = molecular target: T1, Sortilin hSORTECDBAP (human, UniProt Q99523 78-755, biotinylated on the BAP tag by co-expression of biotin ligase); assay: BLI Octet 384RED, antibody on Protein A sensor, Sortilin construct in solution
T1 construct: Soluble extracellular region (ECD, aa 1-755) with BAP tag
T1 sequence: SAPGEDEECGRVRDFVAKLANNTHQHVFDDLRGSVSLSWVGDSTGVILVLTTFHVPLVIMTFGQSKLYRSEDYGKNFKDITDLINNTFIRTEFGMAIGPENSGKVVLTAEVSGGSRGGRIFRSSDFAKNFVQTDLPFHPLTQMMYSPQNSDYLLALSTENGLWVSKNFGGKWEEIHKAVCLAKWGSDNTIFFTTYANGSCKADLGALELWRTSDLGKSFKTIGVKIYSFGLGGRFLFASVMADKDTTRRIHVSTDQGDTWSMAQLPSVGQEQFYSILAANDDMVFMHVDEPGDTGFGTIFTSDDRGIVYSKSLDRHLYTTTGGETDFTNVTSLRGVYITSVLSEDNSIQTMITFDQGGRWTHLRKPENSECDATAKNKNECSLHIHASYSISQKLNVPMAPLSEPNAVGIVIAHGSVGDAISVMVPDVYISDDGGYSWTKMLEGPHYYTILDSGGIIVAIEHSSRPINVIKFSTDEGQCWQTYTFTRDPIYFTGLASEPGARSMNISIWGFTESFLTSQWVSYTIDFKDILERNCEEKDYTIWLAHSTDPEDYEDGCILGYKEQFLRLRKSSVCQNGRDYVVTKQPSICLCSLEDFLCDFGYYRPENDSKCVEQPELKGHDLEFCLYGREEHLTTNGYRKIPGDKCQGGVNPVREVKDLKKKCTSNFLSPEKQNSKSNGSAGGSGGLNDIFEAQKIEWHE
Description: (§1) Binding kinetics of anti-Sortilin HuMab antibodies to Sortilin were determined using Octet 384RED (Fortebio, Menlo Park, USA). HuMab solutions of 2 μg/ml were made by dilution in sample diluent (ForteBio, art. No. 18-5028). Prot A sensors (ForteBio, art. no. 18-0004) were prewetted with kinetics buffer (1:10 sample diluent in PBS) for at least 600 seconds. Subsequently sensors were immobilized with HuMab solution for 600 seconds. A baseline response was obtained by dipping in kinetics buffer for 120 seconds. Association of SORTECD constructs was performed during a 1000 seconds incubation. This was followed by dissociation in kinetics buffer for 100 seconds. After dissociation, sensors were regenerated (10 mM Glycine pH 1.0) and neutralized (kinetics buffer) 3 times for 5 seconds. […] A molecular weight of 76.8 kDA was used for SORTECDHis. Data was fitted with ForteBio Analysis 6.4 software, using a global full fit.

[2] = molecular target: T2, Sortilin SORTECDBAP_hB01-05 (human/tetraodon chimera); assay: as above
T2 construct: Shuffle construct
T2 chain: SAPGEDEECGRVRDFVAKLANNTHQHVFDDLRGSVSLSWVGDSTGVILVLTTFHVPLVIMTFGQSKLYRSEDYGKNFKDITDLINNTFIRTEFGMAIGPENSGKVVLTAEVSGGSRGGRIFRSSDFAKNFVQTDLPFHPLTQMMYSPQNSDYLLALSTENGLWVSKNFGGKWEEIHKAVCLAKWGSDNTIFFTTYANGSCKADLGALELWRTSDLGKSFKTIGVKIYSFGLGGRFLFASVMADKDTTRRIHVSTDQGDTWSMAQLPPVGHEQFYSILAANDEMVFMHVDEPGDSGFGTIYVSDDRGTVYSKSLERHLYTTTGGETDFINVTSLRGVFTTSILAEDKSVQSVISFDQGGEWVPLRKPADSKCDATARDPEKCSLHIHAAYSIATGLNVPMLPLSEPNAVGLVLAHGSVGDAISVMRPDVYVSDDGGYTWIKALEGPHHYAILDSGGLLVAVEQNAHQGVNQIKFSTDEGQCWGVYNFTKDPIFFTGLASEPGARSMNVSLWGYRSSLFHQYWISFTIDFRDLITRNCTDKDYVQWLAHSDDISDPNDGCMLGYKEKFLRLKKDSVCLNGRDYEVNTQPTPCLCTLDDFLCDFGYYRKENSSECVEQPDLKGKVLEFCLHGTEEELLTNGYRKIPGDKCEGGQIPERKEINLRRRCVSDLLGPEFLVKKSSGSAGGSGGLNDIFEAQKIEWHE
Description: as §1

[3] = molecular target: T3, Sortilin SORTECDBAP_hB12390 (human/tetraodon chimera); assay: as above
T3 construct: Shuffle construct
T3 chain: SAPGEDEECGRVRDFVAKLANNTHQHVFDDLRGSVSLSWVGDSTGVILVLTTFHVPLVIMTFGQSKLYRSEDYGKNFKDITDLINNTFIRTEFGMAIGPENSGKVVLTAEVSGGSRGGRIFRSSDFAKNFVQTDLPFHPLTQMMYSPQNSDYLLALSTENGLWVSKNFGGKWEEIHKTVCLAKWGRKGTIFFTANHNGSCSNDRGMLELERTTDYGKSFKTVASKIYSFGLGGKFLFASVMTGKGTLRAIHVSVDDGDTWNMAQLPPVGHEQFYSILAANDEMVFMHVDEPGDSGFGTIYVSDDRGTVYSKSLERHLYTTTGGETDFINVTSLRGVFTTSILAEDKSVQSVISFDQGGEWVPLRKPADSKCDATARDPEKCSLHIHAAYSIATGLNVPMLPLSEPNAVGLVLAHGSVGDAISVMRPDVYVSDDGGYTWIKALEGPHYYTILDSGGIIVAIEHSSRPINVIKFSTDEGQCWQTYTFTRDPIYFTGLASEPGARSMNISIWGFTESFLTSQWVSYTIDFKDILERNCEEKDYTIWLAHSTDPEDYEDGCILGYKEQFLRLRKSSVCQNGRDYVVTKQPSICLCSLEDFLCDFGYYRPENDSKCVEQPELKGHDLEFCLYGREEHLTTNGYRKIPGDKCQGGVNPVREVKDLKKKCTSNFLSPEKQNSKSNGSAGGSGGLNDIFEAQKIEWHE
Description: as §1

Sortilin hSORTECDBAP [4] = molecular target: T1, Sortilin hSORTECDBAP; assay: BLI Octet 384RED (Example 8), Sortilin construct in solution
Description: as §1

B1: 1320 (antibody, V domains shown)
VH: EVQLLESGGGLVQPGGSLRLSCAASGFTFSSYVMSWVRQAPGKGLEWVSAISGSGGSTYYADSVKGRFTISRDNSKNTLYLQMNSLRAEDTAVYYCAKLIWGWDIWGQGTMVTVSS
VL: EIVLTQSPATLSLSPGERATLSCRASQSVSSYLAWYQQRPGQAPRLLIYDASNRATGIPARFSGSGSGTDFTLSISSLEPEDFAVYYCQQRTNWSITFGQGTRLEIK
notes: also called IgG1-6003-1320; Antibody 1320
Sortilin hSORTECDBAP [1]
  EC50: 19.1 ng/mL
[2]
  binding result: no binding (tested: 10 µg/ml construct)
[3]
  EC50: 12.3 ng/mL

B2: Antibody 1F2 (antibody, V domains shown)
VH: EVQLVESGGDLVKPGGSLKLSCAASGFTFSSYGMSWVRQTPDKRLEWVAIISSGGSYTHYPDSVKGRFTISRDNAKNTLYLQMSSLKSEDTAMYYCARLCGPLCSGYWGQGTSVTVSS
VL: QAVVTQESALTTSPGETVTLTCRSSTGAVTTSNYANWVQEKPDHLFTGLIGGTNNRAPGVPARFSGSLIGDKAALTITGAQTEDEAIYFCALWYSNHFWVFGGGTKLTVLG
notes: Mouse anti-human Sortilin monoclonal antibody from hybridoma (BALB/c), purified on protein G; Assigned to the D Region; also called 1F2F4; Ab 1F2
Sortilin hSORTECDBAP [4]
  EC50: 1.56 ng/mL

B3: Antibody 5E1 (antibody, V domains shown)
VH: EVHLVESGGDLVNPGGSLKLSCEASGFIFSIYGMSWVRQTPDKRLEWVAMISSGGIYTQYPDSVKGRFTISRDNAKNTLYLQMSGLKSEDTGTYHCTRHDDSWFAYWGQGTLVTVSA
VL: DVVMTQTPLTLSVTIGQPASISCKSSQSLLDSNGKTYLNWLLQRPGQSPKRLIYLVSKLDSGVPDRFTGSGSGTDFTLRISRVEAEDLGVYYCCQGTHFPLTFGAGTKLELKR
notes: Mouse anti-human Sortilin monoclonal antibody from hybridoma (BALB/c), purified on protein G; Assigned to the D Region; also called 5E1F6; Ab 5E1
Sortilin hSORTECDBAP [4]
  EC50: 1.14 ng/mL
